The target of assay [1] is T1, mouse CXCR4 (wildtype full length) (mouse, UniProt P70658 1-359).
T1 construct: Natively folded mouse CXCR4 expressed on HEK293 cells for flow cytometry
Put plainly: figure legend (flow cytometry of Example 10). An excerpt:
(§1) Fab phage libraries were panned on mouse CXCR4 lipoparticles. Clones were screened by lipoparticle ELISA. Binders were sequenced and grouped into families based on CDR3 homology. Fab from three VHCDR3 families were validated by flow cytometry using HEK293 cells expressing natively folded mouse CXCR4. These families were subsequently tested for binding to human CXCR4 by flow cytometry. The positive clones were recloned into IgG format according to standard methods. Three VHCDR3 families were identified that are crossreactive with human and mouse CXCR4. The amino acid sequences of the heavy chain variable region of the mouse and human CXCR4 binding antibodies are set forth in SEQ Nos: 31, 32 and 33.

The target in assay [2] is T2, human CXCR4 (human, UniProt P61073 1-352).
T2 construct: whole, on cells; Tested by flow cytometry; also called human C-X-C Motif Chemokine Receptor 4
T2 sequence (P61073 whole entry): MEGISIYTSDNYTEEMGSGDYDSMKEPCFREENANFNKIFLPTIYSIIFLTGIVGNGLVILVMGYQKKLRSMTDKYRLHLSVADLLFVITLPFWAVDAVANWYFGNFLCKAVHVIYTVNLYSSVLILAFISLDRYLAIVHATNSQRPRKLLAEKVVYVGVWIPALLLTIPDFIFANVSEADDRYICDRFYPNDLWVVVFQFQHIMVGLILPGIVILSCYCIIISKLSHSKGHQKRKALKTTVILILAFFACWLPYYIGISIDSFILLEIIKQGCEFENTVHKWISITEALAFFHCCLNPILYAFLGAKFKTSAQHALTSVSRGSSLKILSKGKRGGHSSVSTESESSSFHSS
Nature of the assay: figure legend (flow cytometry of Example 10).
Excerpt: as §1

The target of assay [3] is T1, mouse CXCR4 (wildtype full length). Nature of the assay: flow cytometry, Fab on HEK293 cells expressing natively folded mouse CXCR4.
Excerpt: as §1

Assay [4] addresses T2, human CXCR4. Nature of the assay: flow cytometry on human CXCR4.
Excerpt: as §1

Data on three molecules can be found in patent US20220073649A1 (MERUS N V, published 2022).

T1 sequence (P70658 whole entry): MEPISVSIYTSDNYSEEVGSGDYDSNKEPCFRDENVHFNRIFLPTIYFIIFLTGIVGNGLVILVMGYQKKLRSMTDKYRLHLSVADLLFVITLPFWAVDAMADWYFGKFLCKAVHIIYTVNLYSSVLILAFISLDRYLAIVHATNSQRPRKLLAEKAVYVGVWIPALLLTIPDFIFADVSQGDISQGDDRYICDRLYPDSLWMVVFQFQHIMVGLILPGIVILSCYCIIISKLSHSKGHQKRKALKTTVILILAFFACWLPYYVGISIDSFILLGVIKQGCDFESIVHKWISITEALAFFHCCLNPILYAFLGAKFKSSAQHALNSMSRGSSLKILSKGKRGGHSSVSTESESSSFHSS

B1: CXCR4-3 (third chimeric Fab comprising a chicken VH paired with a human VL that binds to mouse and human CXCR4) (Fab, V domains shown)
VH: AVTLDESGGGLQTPGGALSLVCKASGFSIGSYGMGWVRQAPGKGLEFVAGISTIGGVTWYGAAVKGRAIISRDNGQSTVRLQLNNLRAEDTGTYFCAKASDSPSCRYGSRSGWSCPGWNYGGRIDAWGHGTEVIVSS
VL: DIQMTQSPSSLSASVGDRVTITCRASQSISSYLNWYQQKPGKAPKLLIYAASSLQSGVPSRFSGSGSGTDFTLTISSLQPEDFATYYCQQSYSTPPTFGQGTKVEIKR
notes: Positive clones were later recloned into IgG format; also called chicken VH-human VL Fab
As to B1, the binding result in assay [1] and in assay [2] was “binds” in each case.

B2: CXCR4-2 (second chimeric Fab comprising a chicken VH paired with a human VL that binds to mouse and human CXCR4) (Fab, V domains shown)
VH: AVTLDESGGGLQTPGGALSLVCKASGFSFSSYDMSWVRQAPGKGLEWVAGIYSIGRDAGYGAAVKGRATISRDNGQSTVRLQLNNLRAEDTGTYYCAKESGSACRYAARHGYICAGYLGSIDAWGHGTEVIVSS
VL: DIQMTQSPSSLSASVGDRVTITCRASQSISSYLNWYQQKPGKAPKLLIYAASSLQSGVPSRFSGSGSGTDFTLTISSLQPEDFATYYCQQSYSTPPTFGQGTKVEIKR
notes: as for B1
As for B2, the binding result in assay [2] and in assay [3] was “binds” in each case.

B3: CXCR4-1 (first chimeric Fab comprising a chicken VH paired with a human VL that binds to mouse and human CXCR4) (Fab, V domains shown)
VH: AVTLDESGGGLQTPGGALSLVCKASGFTFSSYRGMHWVRQAPGKGLEWVAGIYSSGSSTAYGAAVKGRATISRDDGQSTVRLQLNNLRAEDTGTYYCAKDAGSCWYGRRSGFNCDPYGGNIDAWGHGTEVIVSS
VL: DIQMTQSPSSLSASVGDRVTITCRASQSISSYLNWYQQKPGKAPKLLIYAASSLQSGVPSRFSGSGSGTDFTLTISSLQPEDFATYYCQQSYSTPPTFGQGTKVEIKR
notes: as for B1
Take B3: the binding result in assay [3] and in assay [4] was “binds” in each case.
